Results: patent publication US20030073218A1, “High affinity inhibitors for target validation and uses thereof” (Princeton University, priority 1999, published 2003)

System: T1, Nc1ncnc2c1ncn2[C@@H]1O[C@H](COP(=O)(O)OP(=O)(O)OP(=O)(O)O)[C@@H](O)[C@H]1O
T1 construct: made in house; host or cells: Sf9 insect cells, baculovirus, co-infected with Cak1-HA3 (Cdc28-His6); bacteria (MBP-Clb2)
Assay: purified protein, by the assay type
Format: biochemical, Saccharomyces cerevisiae
Conditions: other: Cdc28 · MBP-Clb2; pH 7.4; 23.0 °C

Cdc28 · MBP-Clb2 (Saccharomyces cerevisiae S288C), sequence (chain, as listed by the source S288C): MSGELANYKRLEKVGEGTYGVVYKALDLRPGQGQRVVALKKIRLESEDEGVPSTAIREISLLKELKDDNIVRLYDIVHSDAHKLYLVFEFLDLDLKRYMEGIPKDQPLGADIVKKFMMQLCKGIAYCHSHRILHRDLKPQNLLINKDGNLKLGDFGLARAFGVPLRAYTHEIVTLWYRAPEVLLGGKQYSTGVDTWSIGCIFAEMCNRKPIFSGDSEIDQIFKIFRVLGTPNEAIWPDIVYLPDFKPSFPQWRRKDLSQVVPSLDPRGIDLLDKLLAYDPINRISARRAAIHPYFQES

Question: What does the source list for “Cdc28 · MBP-Clb2 (Saccharomyces cerevisiae S288C)”?
Answer: Km: 35 µM; kcat: 2.2 s⁻¹; kcat/Km: 62170 M⁻¹ s⁻¹
